Measurements reported in patent publication CN105695419A.

Molecular target: His标签蛋白
Experiment: ELISA titre of mouse ascites

B1: 杂交瘤细胞株4C9(CCTCC NO. C2015198)分泌的抗His标签蛋白单克隆抗体 (antibody, V domains shown)
VH: EVQLQESGAELMKPGASVKLSCKATGYTFTGYWIEWVKQRPGHGLEWIGEILPGSGSINHNENFKDKATFTADTSSNTAYMQLNSLTTEDSAVYFCAGGGGYWGQGTTLTVSS
VL: EIVITQTPLSLPVSLGDQASISCRSSRSIVHSNGNTYLEWYLQKPGQSPKLLIYKVSNRVSGVPDRFSGSGSGTDFTLKISRVEAEDLGVYYCFQGSHVPLTFGAGTKLELKR
ELISA效价: 1.28e+06
